Measured values published in publication PMC4856209 (Nature methods, 2016).
No end group written: not given here.

B1: pentameric ligand-gated ion channel ELIC (natural protein)
chain: APADNAADARPVDVSVSIFINKIYGVNTLEQTYKVDGYIVAQWTGKPRKTPGDKPLIVENTQIERWINNGLWVPALEFINVVGSPDTGNKRLMLFPDGRVIYNARFLGSFSNDMDFRLFPFDRQQFVLELEPFSYNNQQLRFSDIQVYTENIDNEEIDEWWIRKASTHISDIRYDHLSSVQPNQNEFSRITVRIDAVRNPSYYLWSFILPLGLIIAASWSVFWLESFSERLQTSFTLMLTVVAYAFYTSNILPRLPYTTVIDQMIIAGYGSIFAAILLIIFAHHRQAMGVEDDLLIQRCRLAFPLGFLAIGCVLVIRGITL
B2: outer membrane porin OmpF (natural protein)
chain: AEIYNKDGNKVDLYGKAVGLHYFSKGNGENSYGGNGDMTYARLGFKGETQINSDLTGYGQWEYNFQGNNSEGADAQTGNKTRLAFAGLKYADVGSFDYGRNYGVVYDALGYTDMLPEFGGDTAYSDDFFVGRVGGVATYRNSNFFGLVDGLNFAVQYLGKNERDTARRSNGDGVGGSISYEYEGFGIVGAYGAADRTNLQEAQPLGNGKKAEQWATGLKYDANNIYLAANYGETRNATPITNKFTNTSGFANKTQDVLLVAQYQFDFGLRPSIAYTKSKAKDVEGIGDVDLVNYFEVGATYYFNKNMSTYVDYIINQIDSDNKLGVGSDDTVAVGIVYQF

What was measured:
Assay in all cases: native MS
[1] = biological target: Vibrio sp. N418 semiSWEET (Vibrio sp. N418)
[2] = biological target: the molecule itself
[3] = biological target: B2

Molecule: Vibrio sp. N418 semiSWEET (natural protein)
- stoichiometry N [1]: 2

Molecule: B1
- stoichiometry N [2]: 5

Molecule: SGGDGRGHNTGAHSTSG-NH2 [OBS1 peptide (peptide mimic of colicin OmpF Binding Sequence 1)]
- Kd [3]: 690 nM
- stoichiometry N [3]: 3

Molecule: B2
- stoichiometry N [2]: 3
